Test results published in patent US20240376455.

Legend:
Experiment in all cases: cleavage_in_vitro
[1] = test system: T1, LPG10146 (Bifidobacterium thermacidophilum); conditions: PAM SEQ ID 79
T1 sequence: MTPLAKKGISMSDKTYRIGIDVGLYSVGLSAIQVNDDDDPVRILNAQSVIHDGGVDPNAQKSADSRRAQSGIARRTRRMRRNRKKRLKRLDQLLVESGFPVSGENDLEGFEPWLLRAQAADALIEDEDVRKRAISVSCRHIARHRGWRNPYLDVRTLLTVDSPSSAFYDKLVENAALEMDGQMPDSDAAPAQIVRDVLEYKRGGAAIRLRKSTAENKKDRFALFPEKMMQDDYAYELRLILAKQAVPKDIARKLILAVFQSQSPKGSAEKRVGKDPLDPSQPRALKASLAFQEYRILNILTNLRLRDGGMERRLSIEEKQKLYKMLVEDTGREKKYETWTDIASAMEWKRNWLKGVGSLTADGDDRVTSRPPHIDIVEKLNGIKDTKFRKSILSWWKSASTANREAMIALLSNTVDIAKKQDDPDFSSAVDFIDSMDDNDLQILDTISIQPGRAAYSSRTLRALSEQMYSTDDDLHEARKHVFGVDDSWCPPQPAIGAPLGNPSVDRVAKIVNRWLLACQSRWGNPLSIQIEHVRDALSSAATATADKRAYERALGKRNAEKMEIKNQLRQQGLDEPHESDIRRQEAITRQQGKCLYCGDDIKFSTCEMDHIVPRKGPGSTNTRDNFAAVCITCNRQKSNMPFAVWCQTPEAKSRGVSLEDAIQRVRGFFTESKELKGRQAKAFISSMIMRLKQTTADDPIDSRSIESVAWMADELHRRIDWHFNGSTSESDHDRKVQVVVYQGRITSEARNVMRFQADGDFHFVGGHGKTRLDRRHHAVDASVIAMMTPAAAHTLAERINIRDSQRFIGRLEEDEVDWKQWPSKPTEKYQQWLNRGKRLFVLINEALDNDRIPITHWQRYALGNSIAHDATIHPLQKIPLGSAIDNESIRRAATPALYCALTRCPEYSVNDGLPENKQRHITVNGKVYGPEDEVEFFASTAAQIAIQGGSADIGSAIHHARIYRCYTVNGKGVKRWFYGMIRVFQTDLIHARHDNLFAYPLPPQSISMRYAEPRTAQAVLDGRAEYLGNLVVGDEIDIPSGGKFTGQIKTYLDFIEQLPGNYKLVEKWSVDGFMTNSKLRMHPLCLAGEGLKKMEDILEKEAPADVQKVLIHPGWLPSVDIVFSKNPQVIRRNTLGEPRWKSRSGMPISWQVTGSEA

[2] = test system: T2, LPG10138 (Bacillus megaterium)
T2 sequence: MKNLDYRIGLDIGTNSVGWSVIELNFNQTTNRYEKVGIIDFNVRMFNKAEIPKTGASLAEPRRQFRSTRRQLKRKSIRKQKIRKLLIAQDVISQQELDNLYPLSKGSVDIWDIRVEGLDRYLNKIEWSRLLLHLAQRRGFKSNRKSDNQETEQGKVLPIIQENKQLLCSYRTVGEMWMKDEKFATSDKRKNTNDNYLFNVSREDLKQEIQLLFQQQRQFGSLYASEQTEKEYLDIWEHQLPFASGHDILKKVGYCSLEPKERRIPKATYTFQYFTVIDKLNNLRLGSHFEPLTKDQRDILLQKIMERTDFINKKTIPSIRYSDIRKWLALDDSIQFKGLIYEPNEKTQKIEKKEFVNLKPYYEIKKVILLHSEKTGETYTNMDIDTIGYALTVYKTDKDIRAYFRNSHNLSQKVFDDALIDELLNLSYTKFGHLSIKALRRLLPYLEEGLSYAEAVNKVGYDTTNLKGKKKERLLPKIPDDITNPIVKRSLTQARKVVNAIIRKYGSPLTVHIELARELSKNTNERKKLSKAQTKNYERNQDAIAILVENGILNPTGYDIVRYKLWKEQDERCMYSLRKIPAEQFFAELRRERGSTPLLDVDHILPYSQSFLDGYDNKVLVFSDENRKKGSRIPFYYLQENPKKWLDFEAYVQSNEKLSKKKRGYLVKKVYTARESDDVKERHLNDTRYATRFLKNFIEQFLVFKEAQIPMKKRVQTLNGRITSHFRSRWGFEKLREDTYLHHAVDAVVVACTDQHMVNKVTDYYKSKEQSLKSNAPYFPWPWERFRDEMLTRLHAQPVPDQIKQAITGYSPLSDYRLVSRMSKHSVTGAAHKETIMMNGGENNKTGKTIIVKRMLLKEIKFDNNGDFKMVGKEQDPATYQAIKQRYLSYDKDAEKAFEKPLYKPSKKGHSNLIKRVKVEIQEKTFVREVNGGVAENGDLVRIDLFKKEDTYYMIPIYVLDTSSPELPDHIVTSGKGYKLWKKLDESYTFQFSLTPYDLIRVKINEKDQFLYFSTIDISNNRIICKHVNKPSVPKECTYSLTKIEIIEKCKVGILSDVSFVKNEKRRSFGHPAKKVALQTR

[3] = test system: T3, LPG10136 (Bacillus endophyticus); conditions: PAM NNNNCC
T3 sequence: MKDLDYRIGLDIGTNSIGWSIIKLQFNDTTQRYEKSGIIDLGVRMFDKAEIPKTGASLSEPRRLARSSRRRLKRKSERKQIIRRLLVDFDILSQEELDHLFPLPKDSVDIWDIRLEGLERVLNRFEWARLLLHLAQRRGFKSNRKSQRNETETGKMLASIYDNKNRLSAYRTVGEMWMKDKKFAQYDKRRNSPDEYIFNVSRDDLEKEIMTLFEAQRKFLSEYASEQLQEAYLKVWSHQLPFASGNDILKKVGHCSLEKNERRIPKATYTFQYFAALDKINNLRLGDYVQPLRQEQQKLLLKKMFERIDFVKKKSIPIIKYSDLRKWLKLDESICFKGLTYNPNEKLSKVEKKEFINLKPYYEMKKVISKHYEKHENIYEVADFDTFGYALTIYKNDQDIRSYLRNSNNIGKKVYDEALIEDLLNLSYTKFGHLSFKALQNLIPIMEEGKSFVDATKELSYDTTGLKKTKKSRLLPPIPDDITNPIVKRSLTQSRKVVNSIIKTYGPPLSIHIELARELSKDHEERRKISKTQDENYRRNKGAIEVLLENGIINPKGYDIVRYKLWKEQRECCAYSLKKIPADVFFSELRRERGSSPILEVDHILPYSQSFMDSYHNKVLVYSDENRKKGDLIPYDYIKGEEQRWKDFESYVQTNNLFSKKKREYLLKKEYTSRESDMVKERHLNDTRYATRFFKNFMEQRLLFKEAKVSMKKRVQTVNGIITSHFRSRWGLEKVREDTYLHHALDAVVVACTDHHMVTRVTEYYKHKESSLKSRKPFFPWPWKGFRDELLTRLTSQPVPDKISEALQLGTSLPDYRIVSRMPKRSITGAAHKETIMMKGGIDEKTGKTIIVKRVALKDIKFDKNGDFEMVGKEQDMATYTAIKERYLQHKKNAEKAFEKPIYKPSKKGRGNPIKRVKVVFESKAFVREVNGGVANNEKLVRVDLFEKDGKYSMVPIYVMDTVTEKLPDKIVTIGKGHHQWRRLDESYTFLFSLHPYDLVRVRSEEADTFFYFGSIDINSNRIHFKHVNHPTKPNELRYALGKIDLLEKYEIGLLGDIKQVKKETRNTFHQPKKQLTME

Q: How did the activity (% target strand cleaved) [1] turn out when “GCUGAGAAUUAGCAUCCUUCAAAGGAAGAAGCUAAUUCUCAGUAAGUACAGCAAUUAAUAGCUGUAUCUGAAUGCUAAGCGGUUAGCCGCAGGGGAGAGCUUCGGCUCUCCCCGUUCUUUU / GATATAGACGTTGTGGCTGTTGTAGTAGGAAACC / GGTTTCCTACTACAACAGCCACAACGTCTATATC [LPG10146 sgRNA L2 ; Library 2 target AGGAAACC]” was run?
A: 48.9

Q: “GCUGAGAAUUAGCAUCCUUCAAAGGAAGAAGCUAAUUCUCAGUAAGUACAGCAAUUAAUAGCUGUAUCUGAAUGCUAAGCGGUUAGCCGCAGGGGAGAGCUUCGGCUCUCCCCGUUCUUUU / GATATAGACGTTGTGGCTGTTGTAGTGAGTAACC / GGTTACTCACTACAACAGCCACAACGTCTATATC [LPG10146 sgRNA L2 ; Library 2 target GAGTAACC]” was tested. Which activity (% target strand cleaved) [1] did it give?
A: 57.7

Q: “GCUGAGAAUUAGCAUCCUUCAAAGGAAGAAGCUAAUUCUCAGUAAGUACAGCAAUUAAUAGCUGUAUCUGAAUGCUAAGCGGUUAGCCGCAGGGGAGAGCUUCGGCUCUCCCCGUUCUUUU / GGACAGCAGCTTCCTATATCTCGTACGGATAACC / GGTTATCCGTACGAGATATAGGAAGCTGCTGTCC [LPG10146 sgRNA L1 ; Library 1 target GGATAACC]” was tested. Which activity (% target strand cleaved) [1] did it give?
A: 0

Q: With “GUCAUAGUCCCAUCAUAUCCAUUGCAAAGGCAAUGGAUAUGAUGUUUCUAUGAUAAGGGCUCUCUAAGAGAGACCUGUGGCGUUGGGGAUCGCCUGCCCGUUUCGACGGGUGUCUCCCCAUUU / GATATAGACGTTGTGGCTGTTGTAGTAGGAATTC / GAATTCCTACTACAACAGCCACAACGTCTATATC [LPG10138 sgRNA L2 ; Library 2 target AGGAATTC]” as the sequence, how does the activity (% target strand cleaved) ([2]; PAM context AGGAATTC) read?
A: 0

Q: Which activity (% target strand cleaved) ([2]; PAM SEQ ID 75) does the source give for “GUCAUAGUCCCAUCAUAUCCAUUGCAAAGGCAAUGGAUAUGAUGUUUCUAUGAUAAGGGCUCUCUAAGAGAGACCUGUGGCGUUGGGGAUCGCCUGCCCGUUUCGACGGGUGUCUCCCCAUUU / GATATAGACGTTGTGGCTGTTGTAGTAGGACTTC / GAAGTCCTACTACAACAGCCACAACGTCTATATC [LPG10138 sgRNA L2 ; Library 2 target AGGACTTC]” here?
A: 18

Q: For “GUCAUAGUCCCAUCAUAUCCAUUGCAAAGGCAAUGGAUAUGAUGUUUCUAUGAUAAGGGCUCUCUAAGAGAGACCUGUGGCGUUGGGGAUCGCCUGCCCGUUUCGACGGGUGUCUCCCCAUUU / GGACAGCAGCTTCCTATATCTCGTACAGGACTTC / GAAGTCCTGTACGAGATATAGGAAGCTGCTGTCC [LPG10138 sgRNA L1 ; Library 1 target AGGACTTC]”, which activity (% target strand cleaved) ([2]; PAM SEQ ID 75) is on record?
A: 5.5

Q: For “GUCAUAGUUCCACUAAAGCCAUUAAAGAAUGGCUUUGAUGUUUCUAUGAUAAGGGUUUCGACCCGUGGCGUUGGGGAUCGCCUGCCCAUUUCGAUGGGCGUCUCCCCAUUU / GATATAGACGTTGTGGCTGTTGTAGTAGGACCTC / GAGGTCCTACTACAACAGCCACAACGTCTATATC [LPG10136 sgRNA L2 ; Library 2 target AGGACCTC]”, which activity (% target strand cleaved) ([3]; 37C 120 min) is on record?
A: 30.9

Q: How did the activity (% target strand cleaved) ([3]; suboptimal PAM context) turn out when “GUCAUAGUUCCACUAAAGCCAUUAAAGAAUGGCUUUGAUGUUUCUAUGAUAAGGGUUUCGACCCGUGGCGUUGGGGAUCGCCUGCCCAUUUCGAUGGGCGUCUCCCCAUUU / GATATAGACGTTGTGGCTGTTGTAGTAGGACTTC / GAAGTCCTACTACAACAGCCACAACGTCTATATC [LPG10136 sgRNA L2 ; Library 2 target AGGACTTC]” was run?
A: 11.3

Q: With “GUCAUAGUUCCACUAAAGCCAUUAAAGAAUGGCUUUGAUGUUUCUAUGAUAAGGGUUUCGACCCGUGGCGUUGGGGAUCGCCUGCCCAUUUCGAUGGGCGUCUCCCCAUUU / GGACAGCAGCTTCCTATATCTCGTACAGGACCTC / GAGGTCCTGTACGAGATATAGGAAGCTGCTGTCC [LPG10136 sgRNA L1 ; Library 1 target AGGACCTC]” as the sequence, how does the activity (% target strand cleaved) ([3]; 37C 120 min) read?
A: 5
